Like-named read-outs stand apart in the source and are kept apart here.
Key:
AUC [1] = target: the molecule itself; assay: AUC
AUC [2] = target: the molecule itself; assay: AUC; remark: listed apart in the source

B1: Rhizobium etli pyruvate carboxylase, wild type (enzyme)
chain: PISKILVANRSEIAIRVFRAANELGIKTVAIWAEEDKLALHRFKADESYQVGRGPHLARDLGPIESYLSIDEVIRVAKLSGADAIHPGYGLLSESPEFVDACNKAGIIFIGPKADTMRQLGNKVAARNLAISVGVPVVPATEPLPDDMAEVAKMAAAIGYPVMLKASWGGGGRGMRVIRSEADLAKEVTEAKREAMAAFGKDEVYLEKLVERARHVESQILGDTHGNVVHLFERDCSVQRRNQKVVERAPAPYLSEAQRQELAAYSLKIAGATNYIGAGTVEYLMDADTGKFYFIEVNPRIQVEHTVTEVVTGIDIVKAQIHILDGAAIGTPQSGVPNQEDIRLNGHALQCRVTTEDPEHNFIPDYGRITAYRSASGFGIRLDGGTSYSGAIITRYYDPLLVKVTAWAPNPLEAISRMDRALREFRIRGVATNLTFLEAIIGHPKFRDNSYTTRFIDTTPELFQQVKRQDRATKLLTYLADVTVNGHPEAKDRPKPLENAARPVVPYANGNGVKDGTKQLLDTLGPKKFGEWMRNEKRVLLTDTTMRDGHQSLLATRMRTYDIARIAGTYSHALPNLLSLECWGGATFDVSMRFLTEDPWERLALIREGAPNLLLQMLLRGANGVGYTNYPDNVVKYFVRQAAKGGIDLFRVFDCLNWVENMRVSMDAIAEENKLCEAAICYTGDILNSARPKYDLKYYTNLAVELEKAGAHIIAVKDMAGLLKPAAAKVLFKALREATGLPIHFHTHDTSGIAAATVLAAVEAGVDAVDAAMDALSGNTSQPCLGSIVEALSGSERDPGLDPAWIRRISFYWEAVRNQYAAFESDLKGPASEVYLHEMPGGQFTNLKEQARSLGLETRWHQVAQAYADANQMFGDIVKVTPSSKVVGDMALMMVSQDLTVADVVSPDREVSFPESVVSMLKGDLGQPPSGWPEALQKKALKGEKPYTVRPGSLLKEADLDAERKVIEKKLEREVSDFEFASYLMYPKVFTDFALASDTYGPVSVLPTPAYFYGLADGEELFADIEKGKTLVIVNQAVSATDSQGMVTVFFELNGQPRRIKVPDRAHGATGAAVRRKAEPGNAAHVGAPMPGVISRVFVSSGQAVNAGDVLVSIEAMKMETAIHAEKDGTIAEVLVKAGDQIDAKDLLAVYGG
modifications: biotin prosthetic group (enzymic biotin; residue not given)
B1 was tested, and the “stoichiometry N” value (AUC [1]) was 4 and the “stoichiometry N” value (AUC [2]) was 4.

B2: Rhizobium etli pyruvate carboxylase, H216N mutant (enzyme)
chain: PISKILVANRSEIAIRVFRAANELGIKTVAIWAEEDKLALHRFKADESYQVGRGPHLARDLGPIESYLSIDEVIRVAKLSGADAIHPGYGLLSESPEFVDACNKAGIIFIGPKADTMRQLGNKVAARNLAISVGVPVVPATEPLPDDMAEVAKMAAAIGYPVMLKASWGGGGRGMRVIRSEADLAKEVTEAKREAMAAFGKDEVYLEKLVERARNVESQILGDTHGNVVHLFERDCSVQRRNQKVVERAPAPYLSEAQRQELAAYSLKIAGATNYIGAGTVEYLMDADTGKFYFIEVNPRIQVEHTVTEVVTGIDIVKAQIHILDGAAIGTPQSGVPNQEDIRLNGHALQCRVTTEDPEHNFIPDYGRITAYRSASGFGIRLDGGTSYSGAIITRYYDPLLVKVTAWAPNPLEAISRMDRALREFRIRGVATNLTFLEAIIGHPKFRDNSYTTRFIDTTPELFQQVKRQDRATKLLTYLADVTVNGHPEAKDRPKPLENAARPVVPYANGNGVKDGTKQLLDTLGPKKFGEWMRNEKRVLLTDTTMRDGHQSLLATRMRTYDIARIAGTYSHALPNLLSLECWGGATFDVSMRFLTEDPWERLALIREGAPNLLLQMLLRGANGVGYTNYPDNVVKYFVRQAAKGGIDLFRVFDCLNWVENMRVSMDAIAEENKLCEAAICYTGDILNSARPKYDLKYYTNLAVELEKAGAHIIAVKDMAGLLKPAAAKVLFKALREATGLPIHFHTHDTSGIAAATVLAAVEAGVDAVDAAMDALSGNTSQPCLGSIVEALSGSERDPGLDPAWIRRISFYWEAVRNQYAAFESDLKGPASEVYLHEMPGGQFTNLKEQARSLGLETRWHQVAQAYADANQMFGDIVKVTPSSKVVGDMALMMVSQDLTVADVVSPDREVSFPESVVSMLKGDLGQPPSGWPEALQKKALKGEKPYTVRPGSLLKEADLDAERKVIEKKLEREVSDFEFASYLMYPKVFTDFALASDTYGPVSVLPTPAYFYGLADGEELFADIEKGKTLVIVNQAVSATDSQGMVTVFFELNGQPRRIKVPDRAHGATGAAVRRKAEPGNAAHVGAPMPGVISRVFVSSGQAVNAGDVLVSIEAMKMETAIHAEKDGTIAEVLVKAGDQIDAKDLLAVYGG
modifications: biotin prosthetic group (enzymic biotin; residue not given)
For B2, the “stoichiometry N” value (AUC [1]) was 4 and the “stoichiometry N” value (AUC [2]) was 4.

Source: publication PMC3985934 (Biochemistry, 2014)
